Test [1] concerns the target GAL4 DNA-binding domain alone (Saccharomyces cerevisiae (strain ATCC …, UniProt P04386)). Description: yeast two-hybrid. From the text: However, interaction between 14-3-3β and the bcr gene product, which itself has endogenous kinase activity, was detected.
The Raf-1 coding sequence was isolated by PCR amplification of a human placental cDNA library purchased from Stratagene (San Diego, Calif.) as described by MacDonald et al. (1993) *Mol. Cell Biol.* 13: 16.15. For use in the two hybrid screen (Chien et al. (1991) *Proc. Natl. Acad. Sci. USA* 88: 9578), the Raf-1 gene was fused to sequence encoding the GAL4-DNA binding domain by digesting pGEM Raf-I with NcoI and SacI to liberate the Raf-1 coding sequence and subcloning into the pGBT8 plasmid (Hannon et al. (1993) *Genes & Dev.* 7: 2378) digested also with Nco I and Sac I. Yeast (*S. cerevisiae*) of strain YGH-1 (Hannon et al. (1993) op.cit.) were transformed with pGBT8 Raf1, and the resultant strain was transformed with a HeLa cell cDNA library encoding fusions with the GAL4 activation domain in the plasmid pGAD (Chien et al. (1991) *Proc. Natl. Acad. Sci.* (USA) 88: 9578). The YGH-1 strain contains two reported genes, HIS3 and lacZ, which allow selection of cDNAs encoding proteins capable of interacting with the gene of interest, in this case, Raf-1. The first selection was by the ability to grow on plates lacking histidine. Positive colonies were then tested for production of β-galactodidase using X-gal as substrate as described by Hannon et al. op.cit. […]

In test [2] the target is full-length Raf-1 (wildtype Raf) (human). Description: cell-based or functional assay.
The target of test [3] is Ras-binding domain of Raf (aa51-aa131) (human). Kind of test: ELISA. (In general: In an ELISA, binding on a coated surface is turned into a signal by an enzyme label.)

B1: human P1A2 (14-3-3ζ) fused with GAL4 activation domain (other)
chain: MDKNELVQKAKLAEQAERYDDMAACMKSVTEQGAELSNEERNLLSVAYKNVVGARRSSWRVVSSIEQKTEGAEKKQQMAREYREKIETELRDICNDVLSLLEKFLIPNASQAESKVFYLKMKGDYYRYLAEVAAGDDKKGIVDQSQQAYQEAFEISKKEMQPTHPIRLGLALNFSVFYYEILNSPEKACSLAKTAFDEAIAELDTLSEESYKDSTLIMQLLRDNLTLWTSDTQGDEAEAGEGGEN
B1: in test [1], the binding result is recorded as “no binding”.

B2: 14-3-3ζ (not fused to GAL4) (other)
chain: B1 chain
Turning to B2, the “Raf activity in cells containing the 14-3-3 proteins” value in test [2] was 2 fold increase over background.

B3: human HS1 1054 (14-3-3β) fused with GAL4 activation domain (other)
chain: MTMDKSELVQKAKLAEQAERYDDMAAAMKAVTEQGHELSNEERNLLSVAYKNVVGARRSSWRVISSIEQKTERNEKKQQMGKEYREKIEAELQDICNDVLELLDKYLIPNATQPESKVFYLKMKGDYFRYLSEVASGDNKQTTVSNSQQAYQEAFEISKKEMQPTHPIRLGLALNFSVFYYEILNSPEKACSLAKTAFDEAIAELDTLNEESYKDSTLIMQLLRDNLTLWTSENQGDEGDAGEGEN
On to B3, for which the binding result in test [1] is “no binding”.

B4: 14-3-3β (not fused to GAL4) (other)
chain: B3 chain
Regarding B4, the “Raf activity in cells containing the 14-3-3 proteins” value in test [2] was 2 fold increase over background. The binding result in test [3] was “no binding”.

Source of the values: patent publication US5597719, “Interaction of RAF-1 and 14-3-3 proteins” (Onyx Pharmaceuticals, Inc., dated 1997).
